Measured values published in publication PMC5774762.

Experiments:
[1] = molecular target: SUMO1 conjugated to agarose beads (UniProt P63165); assay: pull-down; SUMO1 beads, binding of KmUTAG over time (min); percent of total protein bound
[2] = molecular target: SUMO1 conjugated to agarose beads (UniProt P63165); assay: pull-down; SUMO1 beads with 2.0 M urea, 5 mM TCEP; quantitated against the reaction without urea
[3] = molecular target: SUMO1 conjugated to agarose beads (UniProt P63165); assay: pull-down; SUMO1 beads, with TCEP, at 42°C; bound UTAG quantitated from the stained gel against room temperature
[4] = molecular target: SUMO1 conjugated to agarose beads (UniProt P63165); assay: pull-down; SUMO1 beads, 45 min in the presence of hydrogen peroxide (concentration not told); percent of total protein bound
biotinylated SUMO1 = biotinylated SUMO1 (UniProt P63165); assay: BLI; biotinylated SUMO1 on streptavidin sensors (Octet QK); UTAG as analyte 4-250 nM; 25°C; HBS-T (10 mM HEPES pH 7.4, 150 mM NaCl, 0.05% Tween 20); association 300 s, dissociation 300 s; global single-state fit
[5] = molecular target: SUMO1 conjugated to agarose beads (UniProt P63165); assay: pull-down; SUMO1 beads with various concentrations of hydrogen peroxide (0.006% named in the text); quantitated from the stained gel
[6] = molecular target: SUMO1 conjugated to agarose beads (UniProt P63165); assay: pull-down; SUMO1-conjugated agarose beads in buffer with hydrogen peroxide (0.6% in the text, 1% in the legend) instead of TCEP; quantitated from the stained gel
SUMO1 (Homo sapiens) = SUMO1 (Homo sapiens) (UniProt P63165); settings: cited from earlier work

Substance	percent of the protein bound after 45 minutes [1] [%]	percent of the protein bound within 15 minutes [1] [%]	percent reduction of binding in 2M urea [2] [%]	percent reduction of binding at 42°C against room temperature [3] [%]	percent of the protein bound after 45 minutes in the presence of peroxide [4] [%]	KD after elimination of the top two analyte traces (biotinylated SUMO1) [nM]	Kd (biotinylated SUMO1) [nM]	koff (biotinylated SUMO1) [s⁻¹]	kon (biotinylated SUMO1) [M⁻¹ s⁻¹]	percent reduction of binding with 0.006% peroxide [5] [%]	percent of binding left in the presence of 0.6% H2O2 [6] [%]	Kd (SUMO1 (Homo sapiens)) [nM]
KmUTAG, catalytically inactive (C517S) UD domain of Kluyveromyces marxianus Ulp1, MBP/His6 fusion (from UniProt A0ABX6EQA7 1-555) (domain or fragment)	70	50	23	25	60	8.7	8.7	0.00084	96000	–	–	–
ScUTAG, catalytically inactive (C580S) UD domain of Saccharomyces cerevisiae Ulp1, MBP/His6 fusion (from UniProt Q02724 1-621) (domain or fragment)	–	–	82	87	–	–	2	4.2e-05	21000	50	17	–
ScUTAG (from UniProt Q02724)	–	–	–	–	–	–	–	–	–	–	–	12.8
